Molecular target: T1, E. coli TatC (subunit of the overexpressed TatBC complex) (E. coli), P69423
T1 chain: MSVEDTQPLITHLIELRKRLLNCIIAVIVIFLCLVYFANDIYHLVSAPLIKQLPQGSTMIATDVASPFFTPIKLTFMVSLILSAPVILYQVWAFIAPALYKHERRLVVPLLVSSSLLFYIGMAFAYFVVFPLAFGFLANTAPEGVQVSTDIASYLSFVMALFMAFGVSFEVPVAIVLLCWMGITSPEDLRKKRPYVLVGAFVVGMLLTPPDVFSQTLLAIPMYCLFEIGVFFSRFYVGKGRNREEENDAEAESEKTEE
Assay: cryo-EM structure
Details: remark: other sources report otherwise

- stoichiometry N: 3
B1: E. coli TatC (subunit of the overexpressed TatBC complex), P69423 1-258 (natural protein)
chain: MSVEDTQPLITHLIELRKRLLNCIIAVIVIFLCLVYFANDIYHLVSAPLIKQLPQGSTMIATDVASPFFTPIKLTFMVSLILSAPVILYQVWAFIAPALYKHERRLVVPLLVSSSLLFYIGMAFAYFVVFPLAFGFLANTAPEGVQVSTDIASYLSFVMALFMAFGVSFEVPVAIVLLCWMGITSPEDLRKKRPYVLVGAFVVGMLLTPPDVFSQTLLAIPMYCLFEIGVFFSRFYVGKGRNREEENDAEAESEKTEE
